Experimental data reported in doi:10.1101/102160.

Tests used:
[1] = biological target: CTD2, C-terminal domain of the OCP2 from Fremyella diplosiphon, with C-terminal HisTag (Fremyella diplosiphon UTEX481); test: SEC
[2] = biological target: NTD1-CTD1 heterodimer (with canthaxanthin) (Fremyella diplosiphon UTEX481); test: SEC

Substance	stoichiometry N [1]	stoichiometry N [2]
CTD2, C-terminal domain of the OCP2 from Fremyella diplosiphon, with C-terminal HisTag (domain or fragment)	2	
NTD1-CTD1 heterodimer (with canthaxanthin) (complex)		2
